Measured values as given in IntAct's records for PubMed 29039417.

B1: Protein PTHB1 (Homo sapiens), Q3SYG4 (parent)
chain: MSLFKARDWWSTILGDKEEFDQGCLCLANVDNSGNGQDKIIVGSFMGYLRIFSPHPAKTGDGAQAEDLLLEVDLRDPVLQVEVGKFVSGTEMLHLAVLHSRKLCVYSVSGTLGNVEHGNQCQMKLMYEHNLQRTACNMTYGSFGGVKGRDLICIQSMDGMLMVFEQESYAFGRFLPGFLLPGPLAYSSRTDSFLTVSSCQQVESYKYQVLAFATDADKRQETEQQKLGSGKRLVVDWTLNIGEQALDICIVSFNQSASSVFVLGERNFFCLKDNGQIRFMKKLDWSPSCFLPYCSVSEGTINTLIGNHNNMLHIYQDVTLKWATQLPHIPVAVRVGCLHDLKGVIVTLSDDGHLQCSYLGTDPSLFQAPNVQSRELNYDELDVEMKELQKIIKDVNKSQGVWPMTEREDDLNVSVVVSPNFDSVSQATDVEVGTDLVPSVTVKVTLQNRVILQKAKLSVYVQPPLELTCDQFTFEFMTPDLTRTVSFSVYLKRSYTPSELEGNAVVSYSRPTDRNPDGIPRVIQCKFRLPLKLICLPGQPSKTASHKITIDTNKSPVSLLSLFPGFASQSDDDQVNVMGFHFLGGARITVLASKTSQRYRIQSEQFEDLWLITNELILRLQEYFEKQGVKDFACSFSGSIPLQEYFELIDHHFELRINGEKLEELLSERAVQFRAIQRRLLARFKDKTPAPLQHLDTLLDGTYKQVIALADAVEENQGNLFQSFTRLKSATHLVILLIALWQKLSADQVAILEAAFLPLQEDTQELGWEETVDAAISHLLKTCLSKSSKEQALNLNSQLNIPKDTSQLKKHITLLCDRLSKGGRLCLSTDAAAPQTMVMPGGCTTIPESDLEERSVEQDSTELFTNHRHLTAETPRPEVSPLQGVSE
partner: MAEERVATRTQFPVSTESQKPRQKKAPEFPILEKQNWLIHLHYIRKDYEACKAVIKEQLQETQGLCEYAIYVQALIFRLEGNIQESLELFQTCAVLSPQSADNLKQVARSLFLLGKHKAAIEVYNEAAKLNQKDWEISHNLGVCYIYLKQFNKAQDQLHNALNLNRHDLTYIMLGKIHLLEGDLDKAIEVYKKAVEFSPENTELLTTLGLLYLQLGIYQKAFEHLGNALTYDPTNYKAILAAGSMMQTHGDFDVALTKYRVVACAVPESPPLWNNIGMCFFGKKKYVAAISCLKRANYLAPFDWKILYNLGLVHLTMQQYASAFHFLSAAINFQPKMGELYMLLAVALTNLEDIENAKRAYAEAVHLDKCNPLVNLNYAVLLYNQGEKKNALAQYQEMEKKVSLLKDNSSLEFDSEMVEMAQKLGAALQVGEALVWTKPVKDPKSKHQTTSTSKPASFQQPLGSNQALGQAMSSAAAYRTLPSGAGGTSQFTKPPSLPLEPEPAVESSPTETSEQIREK

Variants of: B1
Conditions: with bbs4_human BBS4, Q96RK4

Variant	effect of a mutation on the interaction
L452S	disrupting interaction strength
Q453A	with no effect
Q453E	with no effect
A455K	with no effect
K456A	with no effect
L457A	with no effect
S458A	with no effect
S458E	with no effect
V459A	disrupting interaction strength
V459K	with no effect
Y460A	with no effect
Y460E	with no effect
Y460K	with no effect
V461A	with no effect
V461E	with no effect
V461K	with no effect
Q462A	with no effect
Q462K	with no effect
Q462T	disrupting interaction strength
P463E	with no effect
P463K	with no effect
P463T	disrupting interaction strength
P464A	with no effect

Variant	effect of a mutation on the interaction
P464E	with no effect
L465A	with no effect
L465E	disrupting interaction strength
L465K	disrupting interaction strength
E466A	with no effect
L467K	with no effect
T468A	with no effect
T468E	with no effect
D470E	with no effect
D470K	with no effect
Q471A	with no effect
Q471E	with no effect
Q471K	with no effect
F472A	with no effect
F472E	with no effect
T473A	with no effect
T473K	with no effect
F474A	with no effect
E475A	with no effect
E475K	with no effect
F476E	with no effect
F476K	with no effect
T478E	with no effect

Variant	effect of a mutation on the interaction
T478K	with no effect
P479E	with no effect
P479K	with no effect
D480K	with no effect
L481E	with no effect
T482A	with no effect
T482E	with no effect
T482K	with no effect
R483A	with no effect
T484E	with no effect
S486A	with no effect
S486E	with no effect
S486R	disrupting interaction strength
F487E	with no effect
F487K	with no effect
S488K	with no effect
V489A	with no effect
V489E	with no effect
Y490A	with no effect
Y490E	with no effect
Y490K	with no effect
L491A	with no effect
L491E	with no effect

Variant	effect of a mutation on the interaction
K492A	with no effect
R493A	with no effect
R493E	with no effect
R493K	with no effect
S494A	with no effect
S494E	with no effect
Y495A	with no effect
Y495E	with no effect
T496E	with no effect
T496K	with no effect
P497A	with no effect
P497E	with no effect
P497K	with no effect
S498E	with no effect
S498K	with no effect
E499K	with no effect
E501A	with no effect
E501K	with no effect
G502A	with no effect
G502E	with no effect
G502R	disrupting interaction strength
N503A	with no effect
V505A	with no effect

Variant	effect of a mutation on the interaction
V505E	with no effect
V505K	with no effect
V506A	with no effect
V506E	disrupting interaction strength
S507A	with no effect
S507K	with no effect
Y508A	with no effect
Y508E	with no effect
Y508K	with no effect
S509E	with no effect
S509K	with no effect
S509P	disrupting interaction strength
R510A	with no effect
P511A	with no effect
P511K	with no effect
T512A	with no effect
T512E	with no effect
T512K	with no effect
D513E	with no effect
D513K	with no effect
R514A	with no effect

More lines, now with the values ahead:

effect of a mutation on the interaction	Variant
with no effect	Q453K
with no effect	K454A
with no effect	K454E
with no effect	A455E
with no effect	K456E
with no effect	L457E
with no effect	L457K
with no effect	S458K
with no effect	V459E
with no effect	Q462E
with no effect	P463A
with no effect	P464K
with no effect	E466K
with no effect	L467A
with no effect	L467E
with no effect	T468K
with no effect	C469A
with no effect	C469E
with no effect	C469K
with no effect	D470A
with no effect	F472K
with no effect	T473E
with no effect	F474E

effect of a mutation on the interaction	Variant
with no effect	F474K
with no effect	F476A
with no effect	M477A
with no effect	M477E
with no effect	M477K
with no effect	T478A
with no effect	P479A
with no effect	D480A
with no effect	D480E
with no effect	L481A
with no effect	L481K
with no effect	R483E
with no effect	R483K
with no effect	T484A
with no effect	T484K
with no effect	V485A
with no effect	V485E
with no effect	V485K
with no effect	S486K
with no effect	F487A
disrupting interaction strength	F487S
with no effect	S488A
with no effect	S488E

effect of a mutation on the interaction	Variant
with no effect	V489K
with no effect	L491K
with no effect	K492E
with no effect	S494K
with no effect	Y495K
with no effect	T496A
with no effect	S498A
with no effect	E499A
with no effect	L500A
with no effect	L500E
with no effect	L500K
with no effect	G502K
with no effect	N503E
with no effect	N503K
with no effect	A504E
with no effect	A504K
with no effect	V506K
with no effect	S507E
with no effect	S509A
with no effect	R510E
with no effect	R510K
with no effect	P511E
with no effect	D513A
